For 25 sequences, protein stability index results are on record in the supplement of paper PMC9732359.

This series in a line: protein stability index of a GFP-peptide fusion (yeast GPS) (PSI 1-4); higher = more stable; sorted into four equal gates, so the index is relative within each strain. Put shortly: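 Plasmids isolated from each sorting gate were PCR-amplified and Illumina-sequenced, and barcodes assigned the reads to strains. The gates, four of equal size, were set by GFP/Cherry fluorescence ratio on mid-log cultures in leucine-free medium. These cultures were yeast carrying a pooled library of tiled 17-residue yeast protein peptides fused downstream of GFP on a plasmid that also expresses Cherry. The protein stability index is the sum of every gate's read frequency times its gate number.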

± gives the uncertainty stated by the source.

For the sequence KLAKNLQIGDVVERHLE [RPO31], the protein stability index (doa10∆) came to 3.25 ± 0.15, the protein stability index (pdr5∆) came to 3.49 ± 0.12, the protein stability index (san1∆) was 3.31 ± 0.069 and the protein stability index (ubr1∆) came out at 3.2 ± 0.12.
The like results for LEAPVKSIENPTQTKGN [YLR335W/NUP2] were, in that order, 3.04 ± 0.077, 3.17 ± 0.055, 3.15 ± 0.051 and 2.95 ± 0.058.
The like results for EKNEKEREIKRRKFDPS [UBP6] were, in that order, 3.3 ± 0.05, 3.25 ± 0.051, 3.09 ± 0.044 and 3.25 ± 0.057.
The like results for HVKRITKIAQSQTMAET [ECM29] were, in that order, 2.33 ± 0.057, 2.46 ± 0.036, 2.02 ± 0.061 and 2.07 ± 0.033.
On to PTATPSPFRPLEKTSRI [YMR153W/NUP53], for which the protein stability index reads like this: (doa10∆) 2.89 ± 0.1; (pdr5∆) 2.51 ± 0.058; (san1∆) 2.57 ± 0.11; (ubr1∆) 2.81 ± 0.054.
Regarding KKQNLSSHQRVFKLSTN [SWP82], the protein stability index is, setting by setting: (doa10∆) 1.94 ± 0.052; (pdr5∆) 2.08 ± 0.052; (san1∆) 2.05 ± 0.068; (ubr1∆) 2.06 ± 0.043.
In the case of GNENFEDFDVEHFSDEE [RPO26], the protein stability index runs as follows: (doa10∆) 3.05 ± 0.088; (pdr5∆) 3.1 ± 0.088; (san1∆) 2.95 ± 0.085; (ubr1∆) 3.17 ± 0.082.
The sequence RAAKLAAPENEKPAPVR [RPS15] registered a protein stability index (doa10∆) of 3.21 ± 0.1, a protein stability index (pdr5∆) of 3.15 ± 0.11, a protein stability index (san1∆) of 2.89 ± 0.073 and a protein stability index (ubr1∆) of 3.36 ± 0.082.
The like results for EVNREEAIGFIRGSNKF [SMC3] were, in that order, 2.84 ± 0.21, 2.77 ± 0.11, 2.88 ± 0.14 and 2.57 ± 0.09.
As for GEITFDGIGGLTEQIRE [RPT4], the protein stability index runs as follows: (doa10∆) 3.34 ± 0.12; (pdr5∆) 3.45 ± 0.099; (san1∆) 3.21 ± 0.093; (ubr1∆) 3.54 ± 0.062.
PRRDGERKRKSVRGAIV [RPS6A] returned a protein stability index (doa10∆) of 3.16 ± 0.099, a protein stability index (pdr5∆) of 3.29 ± 0.075, a protein stability index (san1∆) of 3.33 ± 0.072 and a protein stability index (ubr1∆) of 3.05 ± 0.087.
With VQGGNAAPSAADIKAVV [RPP2B], the protein stability index (doa10∆) came out at 3.01 ± 0.084, the protein stability index (pdr5∆) turned out to be 3.34 ± 0.07, the protein stability index (san1∆) came to 2.88 ± 0.085 and the protein stability index (ubr1∆) turned out to be 3.23 ± 0.075.
The like results for KQTGRDQMVVGWYHSHP [RPN11] were, in that order, 2.4 ± 0.12, 1.97 ± 0.096, 2.4 ± 0.15 and 1.53 ± 0.096.
For LTRFSHDADLEVSMNSI [RPN1], the protein stability index by setting is: (doa10∆) 3.24 ± 0.099; (pdr5∆) 3.14 ± 0.056; (san1∆) 3.08 ± 0.05; (ubr1∆) 3.1 ± 0.037.
Turning to IAINFTVNHSEKFPNDV [RPP1], the protein stability index amounted to 2.68 ± 0.068 (doa10∆), 2.87 ± 0.047 (pdr5∆), 2.95 ± 0.051 (san1∆) and 3.02 ± 0.058 (ubr1∆).
For the sequence TKFQTTDRESYPRLQDP [YCS4], the protein stability index is, setting by setting: (doa10∆) 3 ± 0.072; (pdr5∆) 3.15 ± 0.055; (san1∆) 3.13 ± 0.079; (ubr1∆) 3.05 ± 0.074.
For GDDVVNDVQGIDDVQTI [RPP1], the protein stability index was 3.2 ± 0.15 (doa10∆), 3.46 ± 0.14 (pdr5∆), 3.42 ± 0.067 (san1∆) and 3.18 ± 0.081 (ubr1∆).
The like results for LALALGILYMGQGEQVD [RPN1] were, in that order, 1.26 ± 0.16, 1.5 ± 0.13, 1.45 ± 0.13 and 1.23 ± 0.11.
The like results for YSSKPYKVDNMTRILPQ [RPN2] were, in that order, 2.62 ± 0.073, 2.88 ± 0.072, 2.62 ± 0.082 and 2.31 ± 0.067.
The like results for HTSIRETLENGETRMKM [SMC2] were, in that order, 2.65 ± 0.11, 2.79 ± 0.13, 2.85 ± 0.12 and 2.95 ± 0.083.
Take KLLAKELEEQESESERK [SMC2]: the protein stability index runs as follows: (doa10∆) 2.71 ± 0.13; (pdr5∆) 3.23 ± 0.089; (san1∆) 2.46 ± 0.16; (ubr1∆) 3.14 ± 0.1.
VVDFKNKENDNVPSTKF [SNF12]: the protein stability index (doa10∆) was 3.6 ± 0.19, the protein stability index (pdr5∆) is 3.23 ± 0.25 and the protein stability index (san1∆) turned out to be 3.04 ± 0.14.
Take DRFIELISDQLLEFFEL [YML103C/NUP188]: the protein stability index reads like this: (doa10∆) 2.56 ± 0.067; (pdr5∆) 2.42 ± 0.053; (san1∆) 2.4 ± 0.053; (ubr1∆) 2.74 ± 0.049.
DNNYNTAETNNKVHETS [YDL088C/ASM4]: the protein stability index is, setting by setting: (doa10∆) 2.99 ± 0.078; (pdr5∆) 2.92 ± 0.069; (san1∆) 2.78 ± 0.052; (ubr1∆) 2.81 ± 0.051.
Take NSWFDVTWRTFTGDFLR [FAS1]: the protein stability index reads like this: (doa10∆) 2.75 ± 0.11; (pdr5∆) 1.93 ± 0.093; (san1∆) 1.98 ± 0.12; (ubr1∆) 2.61 ± 0.069.
